Three molecules from patent US20220195070A1 (Chugai, published 2022) can be followed below.

The target in one assay is T1, SG115 (human, UniProt P01857 1-328 = IgG part).
T1 construct: also called modified IgG heavy chain constant region SG115
In words: ELISA, OD405 against dose (ng/mL, log axis 1-100). (In an ELISA, binding on a coated surface is turned into a signal by an enzyme label.)

For another assay, the target named is T2, SG115v1 (human, UniProt P01857 1-328 = IgG part).
T2 construct: Carries the CH2 modifications of SG115 (Arg235, Arg236, Lys239, EU); Construct used in the ELISA is not described beyond the constant region; also called modified IgG heavy chain constant region SG115v1
Briefly: ELISA, OD405 against dose (ng/mL, log axis 1-100).

A further assay addresses T3, SG115v2 (human, UniProt P01857 1-328 = IgG part).
T3 construct: Carries the CH3 modifications of SG115 (Leu428, Ala434, Arg438, Glu440, EU); Construct used in the ELISA is not described beyond the constant region; also called modified IgG heavy chain constant region SG115v2
Briefly: ELISA, OD405 against dose (ng/mL, log axis 1-100).

The target in a further assay is T4, Glm (human, UniProt P01857 1-328 = IgG part).
T4 construct: Construct used in the ELISA is not described beyond the constant region; also called G1m
Briefly: ELISA, OD405 against dose (ng/mL, log axis 1-100).

A further assay addresses T5, G4d (human, UniProt P01861 1-325 = IgG part).
T5 construct: Construct used in the ELISA is not described beyond the constant region
In words: ELISA, OD405 against dose (ng/mL, log axis 1-100).

In a further assay the target is T6, Anti-IL-8 Antibody.
T6 construct: also called anti-human IL-8 antibody; Fc-Mutated Antibody
In words: SPR (Biacore T200), 25 C, pH 7.4; SKA antibody captured by anti-rabbit IgG, Anti-IL-8 Antibody injected 0-800 nM. The procedure: To confirm the binding ability of Anti Fc-Mutation Antibodies that show selective binding to SG115v1, KD values of Anti Fc-Mutation Antibodies against Anti-IL-8 Antibody at pH 7.4 were determined at 25 degrees C. using Biacore T200 instrument (GE Healthcare). Sequence of Fc region of Anti-IL-8 Antibody has high similarity to that of Anti-hC5 Antibody.
Anti-rabbit IgG (Abbexa) was immobilized onto FC1 and 2 of a CMS sensor chip using an amine coupling kit (GE Healthcare). For the immobilization of anti-rabbit IgG, HBS-EP+, pH7.4 (GE Healthcare) buffer was used as running buffer. After the immobilization, running buffer was changed to Phosphate pH7.4 buffer (50 mM phosphate buffer containing 150 mM NaCl and 0.05 w/v % P-20, pH 7.4). Each Anti Fc-Mutation Antibody was captured onto FC2 of the sensor chip by anti-rabbit IgG. The amount of Anti Fc-Mutation Antibody to be captured was adjusted so that the number of resonance units (RU) was 100. Anti-IL-8 Antibody was injected at 0, 100, 400, and 800 nM at 10 micro L/min. Sensor surface was regenerated after each cycle with 10 mM Glycine-HCl, pH2.0, which was injected at a flow rate of 30 micro L/min. KD values were obtained using Biacore T200 Evaluation software, version 2.0 (GE Healthcare).
Background: Surface plasmon resonance follows binding to a sensor surface in real time, without labels.

T6 sequence (constant, as listed by the source limits assumed): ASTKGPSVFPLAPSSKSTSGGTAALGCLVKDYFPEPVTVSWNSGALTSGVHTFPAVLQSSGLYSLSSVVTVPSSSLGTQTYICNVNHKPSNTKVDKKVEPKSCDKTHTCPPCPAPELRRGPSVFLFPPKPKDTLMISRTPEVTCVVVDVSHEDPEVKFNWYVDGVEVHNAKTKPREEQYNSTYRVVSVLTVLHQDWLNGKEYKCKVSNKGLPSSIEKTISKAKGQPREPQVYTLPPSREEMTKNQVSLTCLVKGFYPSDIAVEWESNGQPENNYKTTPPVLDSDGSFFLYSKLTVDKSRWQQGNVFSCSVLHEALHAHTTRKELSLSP
T1 sequence (P01857 other isoform, or with tags, fused parts or gaps limits assumed): as the sequence (constant, as listed by the source limits assumed) above, with S122K, T319Y counted along it
T3 sequence (P01857 other isoform, or with tags, fused parts or gaps limits assumed): as the sequence (constant, as listed by the source limits assumed) above, with R118L, R119G, T319Y counted along it
T4 sequence (P01857 1-328 D239E/L241M limits assumed): as the sequence (constant, as listed by the source limits assumed) above, with R118L, R119G, G210A, S213A, S214P, L311M, A317N, T319Y, R321Q, E323S counted along it
T5 sequence (P01861 1-325 S108P limits assumed): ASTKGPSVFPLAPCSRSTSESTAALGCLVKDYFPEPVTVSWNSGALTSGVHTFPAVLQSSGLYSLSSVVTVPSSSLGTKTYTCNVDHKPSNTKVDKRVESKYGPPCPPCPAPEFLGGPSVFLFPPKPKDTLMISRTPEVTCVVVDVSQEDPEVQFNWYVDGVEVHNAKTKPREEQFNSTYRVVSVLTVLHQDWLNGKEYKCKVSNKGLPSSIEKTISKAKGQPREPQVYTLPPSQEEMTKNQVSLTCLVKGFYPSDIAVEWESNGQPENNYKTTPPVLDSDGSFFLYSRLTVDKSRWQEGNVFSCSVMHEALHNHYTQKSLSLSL
T2 sequence (P01857 other isoform, or with tags, fused parts or gaps limits assumed): as the sequence (constant, as listed by the source limits assumed) above, with S122K, L311M, A317N, T319Y, R321Q, E323S counted along it

B1: SKA0127 (antibody, V domains shown)
VH: QSVEESGGRLVTPGTPLTLTCTVSGIDLSTYAMTWVRQAPGKGLEYIGYINGGGSAYYASWVNGRFTISKTSTTADLKITSPTTEDTATYFCARGPVGSYHRIWGPGTLVTVSS
VL: ALVMTQTPSSVSEPVGGTVTINCRASEDIESYLAWYQQKPGQPPKLLIYATSNLETGVPSRFKGSGSGTDYTLTISGVQCADAATYYCQGYYELSSIDNNAFGGGTEVVVKG
notes: Recombinant rabbit monoclonal from B-cell cloning, expressed in FreeStyle 293-F cells; the first screen used B-cell culture supernatant; also called Anti-SG115 Antibody; rabbit Anti Fc-Mutation Antibody
Broadly, the Kd is the constant that tells how readily two partners part at equilibrium. A low value points to a tighter complex. As usually defined, the koff is the first-order rate constant of dissociation. Read a low koff as a long-lived complex. As a reminder, the kon is a measure of how fast the partners come together. Read a high kon as fast association. Take B1: the binding result is on record as “binds” with SG115; “binds” with SG115v1; “no binding (tested: about 60 ng/mL)” with SG115v2; “no binding (tested: about 60 ng/mL)” with Glm; “no binding (tested: about 60 ng/mL)” in the assay with G4d. Moreover, the Kd with Anti-IL-8 Antibody came out at 45.4 nM. This molecule registered a koff with Anti-IL-8 Antibody of 0.000804 s⁻¹. The same molecule had a kon with Anti-IL-8 Antibody of 17700 M⁻¹ s⁻¹.

B2: SKA0052 (antibody, V domains shown)
VH: QSLEESGGDLVKSGASLTLTCTASGFSFSSSYYMCWVRQAPGKGLEWIACIYTGSNGDTYYASWANGRFTISKASSTTVTLQMTSLTAADTATYFCARYTYDDDGDYTSFNLWGPGTLVTVSS
VL: ALVMTQTPSSVSADVGGTVTINCQASQNIYRNLAWYQQKPGQRPKLLIYGASNLEPGVPSRFKGSGSGTEFTLTISDLECDDAATYYCQSVGYSGSVDTFFYAFGGGTEVVVKG
notes: as for B1
Turning to B2, the binding result is on record as “binds” in the assay with SG115; “binds” with SG115v1; “no binding (tested: about 60 ng/mL)” in the assay with SG115v2; “no binding (tested: about 60 ng/mL)” with Glm; “no binding (tested: about 60 ng/mL)” in the assay with G4d. In the assay with Anti-IL-8 Antibody, this molecule had a Kd of 47 nM. Besides, the koff with Anti-IL-8 Antibody came to 0.00431 s⁻¹. This molecule also returned an on-rate constant (kon) in the assay with Anti-IL-8 Antibody of 91700 M⁻¹ s⁻¹.

B3: SKA0054 (antibody, V domains shown)
VH: QSLEESGGGLVQPEGSLTLTCTASGFSFSSSFWICWVRQAPGKGLEWLACIDAGSSDNTYYANWAKGRFTISKTSSTTVTLQMTSLTDADTATYFCARDRDAAGDAGYGYATSFNLWGPGTLVTVSS
VL: AIDMTQTPSSVSAAVGGTVTINCQASESIYSNLAWYQQKPGQRPKLLIYLASTLASGVPSRFKGSGSGTEFTLTISDLECADAATYYCQSVYYDSRGDTFFWAFGGGTEVVVKG
notes: as for B1
With B3, the binding result is on record as “binds” in the assay with SG115; “binds” in the assay with SG115v1; “no binding (tested: about 60 ng/mL)” with SG115v2; “no binding (tested: about 60 ng/mL)” with Glm; “no binding (tested: about 60 ng/mL)” with G4d. In the assay with Anti-IL-8 Antibody, this molecule gave a Kd of 96.8 nM. The same molecule showed a koff with Anti-IL-8 Antibody of 0.000966 s⁻¹. In the assay with Anti-IL-8 Antibody, the kon came to 9980 M⁻¹ s⁻¹.
